According to patent EP4793288A1 (Imbiologics Corp., dated 2025):

What was measured:
[1] = molecular target: T1, HLA-G expressed on the cell surface (human, UniProt P17693 25-338); assay: cell-based or functional assay
[2] = molecular target: T2, Recombinant HLA-G antigen (human, UniProt P17693 25-308, limits assumed); assay: BLI (Octet), antibody on anti-human IgG Fc capture biosensor, HLA-G antigen 100 to 1.56 nM
T2 construct: also called recombinant HLA-G protein

B2M = B2M (UniProt P61769 21-119); assay: ELISA
B2M, sequence (P61769 21-119 limits assumed): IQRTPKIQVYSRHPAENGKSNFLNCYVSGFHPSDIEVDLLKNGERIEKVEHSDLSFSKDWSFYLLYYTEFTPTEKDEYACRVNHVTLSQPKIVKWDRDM

[3] = molecular target: T1, HLA-G expressed on the cell surface; assay: flow cytometry on JEG-3 and SCH cells naturally expressing HLA-G, anti-human IgG PE

B1: Afucosylated positive control antibody (antibody, human IgG1, kappa, V domains shown)
VH: QLQLQESGPGLVKPSETLSLTCTVSGGSISSSSTYWSWIRQPPGKGLEWIGGIAYSGSTYYNPSLKSRVTISVDTSKNQFSLKLSSVTAADTAVYYCARGVRRAVPEDYWGQGTLVTVSS
VL: EIVLTQSPGTLSLSPGERATLSCQASQAVSSNYLAWYQQKPGQAPRLLIYGASSRATGIPDRFSGSGSGTDFTLTISRLEPEDFAVYYCQQVVHSPYTFGGGTKVEIKR
modifications: afucosylated glycan
EC50 (nM), ADCC reporter assay on SKOV-3/HLA-G cells, afucosylated antibody [1]: 0.13 nM

B2: Positive control antibody (antibody, human IgG1, kappa, V domains shown)
VH: QLQLQESGPGLVKPSETLSLTCTVSGGSISSSSTYWSWIRQPPGKGLEWIGGIAYSGSTYYNPSLKSRVTISVDTSKNQFSLKLSSVTAADTAVYYCARGVRRAVPEDYWGQGTLVTVSS
VL: EIVLTQSPGTLSLSPGERATLSCQASQAVSSNYLAWYQQKPGQAPRLLIYGASSRATGIPDRFSGSGSGTDFTLTISRLEPEDFAVYYCQQVVHSPYTFGGGTKVEIKR
EC50 (nM), ADCC reporter assay on SKOV-3/HLA-G cells [1]: 1.59 nM | Kd [2]: 1.36 nM | koff [2]: 0.000157 s⁻¹

B3: 2F1CDRH3#10 (antibody, human IgG1, kappa, V domains shown)
VH: EVQLVESGGGLVQPGGSLRLSCAASGFTFSSYAMSWVRQAPGKGLEWVSRISGSGGYKYYADSVKGRFTISRDNSKNTLYLQMNSLRAEDTAVYYCAKEGTSSYRGWMDVWGQGTLVTVSS
VL: IQMTQSPSSLSASVGDRVTITCRASQSISNYLNWYQQKPGKAPKLLIYATSTLQSGVPSRFSGSGSGTDFTLTISSLQPEDFATYYCQQSYTTPWTFGQGTKVEIKR
binding result (B2M): no binding | EC50 (nM), ADCC reporter assay on SKOV-3/HLA-G cells [1]: 0.08 nM | fold HLA-G binding activity against the positive control antibody [3]: ≥ 3 fold

B4: 2F1_LS#26 (antibody, human IgG1, kappa, V domains shown)
VH: EVQLVESGGGLVQPGGSLRLSCAASGFTFSSYAMSWVRQAPGKGLEWVSRISGSGGYIYYADSVKGRFTISRDNSKNTLYLQMNSLRAEDTAVYYCAKEGTSSYRGWMDVWGQGTLVTVSS
VL: DIQMTQSPSSLSASVGDRVTITCRASQSISNYLNWYQQKPGKAPKLLIYATSRLQSGVPSRFSGSGSGTDFTLTISSLQPEDFATYYCQQSYSFPWTFGQGTKVEIKR
binding result (B2M): no binding | Kd [2]: 0.698 nM | koff [2]: 2.82e-05 s⁻¹

B5: Afucosylated 2F1HS6LS#46 (antibody, human IgG1, kappa, V domains shown)
VH: EVQLVESGGGLVQPGGSLRLSCAASGFTFSDYAMSWVRQAPGKGLEWVSRISQSGSYTYYADSVKGRFTISRDNSKNTLYLQMNSLRAEDTAVYYCAKEGTSSYRGWMDVWGQGTLVTVSS
VL: DIQMTQSPSSLSASVGDRVTITCRASQSISNWLNWYQQKPGKAPKLLIYATSRLQSGVPSRFSGSGSGTDFTLTISSLQPEDFATYYCQQSYSTPWTFGQGTKVEIKR
modifications: afucosylated glycan (antibody produced with 400 µM 2-deoxy-2-fluoro-L-fucose in the medium)
EC50 (nM), ADCC reporter assay on SKOV-3/HLA-G cells, afucosylated antibody [1]: 0.02 nM

B6: Afucosylated 2F1CDRH3#26 (antibody, human IgG1, kappa, V domains shown)
VH: EVQLVESGGGLVQPGGSLRLSCAASGFTFSSYAMSWVRQAPGKGLEWVSRISGSGSYTYYADSVKGRFTISRDNSKNTLYLQMNSLRAEDTAVYYCAKEGASSYRGWMDVWGQGTLVTVSS
VL: DIQMTQSPSSLSASVGDRVTITCRASQSISNYLNWYQQKPGKAPKLLIYATSRLQSGVPSRFSGSGSGTDFTLTISSLQPEDFATYYCQQSHSTPWTFGQGTKVEIKR
modifications: afucosylated glycan (antibody produced with 400 µM 2-deoxy-2-fluoro-L-fucose in the medium)
EC50 (nM), ADCC reporter assay on SKOV-3/HLA-G cells, afucosylated antibody [1]: 0.02 nM

B7: Afucosylated 2F1HS6LS#38 (antibody, V domains shown)
VH: EVQLVESGGGLVQPGGSLRLSCAASGFTFSDYAMSWVRQAPGKGLEWVSRISQSGSYTYYADSVKGRFTISRDNSKNTLYLQMNSLRAEDTAVYYCAKEGTSSYRGWMDVWGQGTLVTVSS
VL: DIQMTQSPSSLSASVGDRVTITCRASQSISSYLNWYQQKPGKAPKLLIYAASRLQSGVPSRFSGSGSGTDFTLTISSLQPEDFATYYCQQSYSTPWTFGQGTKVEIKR
modifications: afucosylated glycan (antibody produced with 400 µM 2-deoxy-2-fluoro-L-fucose in the medium)
EC50 (nM), ADCC reporter assay on SKOV-3/HLA-G cells, afucosylated antibody [1]: 0.07 nM

B8: Afucosylated 2F1CDRH3#10 (antibody, human IgG1, kappa, V domains shown)
VH: EVQLVESGGGLVQPGGSLRLSCAASGFTFSSYAMSWVRQAPGKGLEWVSRISGSGGYKYYADSVKGRFTISRDNSKNTLYLQMNSLRAEDTAVYYCAKEGTSSYRGWMDVWGQGTLVTVSS
VL: IQMTQSPSSLSASVGDRVTITCRASQSISNYLNWYQQKPGKAPKLLIYATSTLQSGVPSRFSGSGSGTDFTLTISSLQPEDFATYYCQQSYTTPWTFGQGTKVEIKR
modifications: afucosylated glycan (antibody produced with 400 µM 2-deoxy-2-fluoro-L-fucose in the medium)
EC50 (nM), ADCC reporter assay on SKOV-3/HLA-G cells, afucosylated antibody [1]: 0.01 nM

B9: Afucosylated 2F1CDRH3#17 (antibody, human IgG1, kappa, V domains shown)
VH: EVQLVESGGGLVQPGGSLRLSCAASGFTFSDYAMSWVRQAPGKGLEWVSRISGTGSYKYYADSVKGRFTISRDNSKNTLYLQMNSLRAEDTAVYYCAKEGTSTYRGWMDVWGQGTLVTVSS
VL: DIQMTQSPSSLSASVGDRVTITCRASQSISNYLNWYQQKPGKAPKLLIYATSRLQSGVPSRFSGSGSGTDFTLTISSLQPEDFATYYCQQSYTTPWTFGQGTKVEIKR
modifications: afucosylated glycan (antibody produced with 400 µM 2-deoxy-2-fluoro-L-fucose in the medium)
EC50 (nM), ADCC reporter assay on SKOV-3/HLA-G cells, afucosylated antibody [1]: 0.01 nM

B10: Afucosylated 2F1CDRH3#16 (antibody, human IgG1, kappa, V domains shown)
VH: EVQLVESGGGLVQPGGSLRLSCAASGFTFSDYAMSWVRQAPGKGLEWVSRISSSGSYTYYADSVKGRFTISRDNSKNTLYLQMNSLRAEDTAVYYCAKEGTSKYRGWMDVWGQGTLVTVSS
VL: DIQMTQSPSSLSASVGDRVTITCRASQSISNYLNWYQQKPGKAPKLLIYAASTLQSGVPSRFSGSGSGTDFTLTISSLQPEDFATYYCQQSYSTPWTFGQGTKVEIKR
modifications: afucosylated glycan (antibody produced with 400 µM 2-deoxy-2-fluoro-L-fucose in the medium)
EC50 (nM), ADCC reporter assay on SKOV-3/HLA-G cells, afucosylated antibody [1]: 0.02 nM

B11: 2F1_LS#24 (antibody, human IgG1, kappa, V domains shown)
VH: EVQLVESGGGLVQPGGSLRLSCAASGFTFSSYAMSWVRQAPGKGLEWVSRISGSGGYIYYADSVKGRFTISRDNSKNTLYLQMNSLRAEDTAVYYCAKEGTSSYRGWMDVWGQGTLVTVSS
VL: DIQMTQSPSSLSASVGDRVTITCRASQSISNWLNWYQQKPGKAPKLLIYAASRLQSGVPSRFSGSGSGTDFTLTISSLQPEDFATYYCQQSYTSPWTFGQGTKVEIKR
binding result (B2M): no binding | Kd [2]: 0.553 nM | koff [2]: 0.00012 s⁻¹

B12: 2F1CDRH3#16 (antibody, human IgG1, kappa, V domains shown)
VH: EVQLVESGGGLVQPGGSLRLSCAASGFTFSDYAMSWVRQAPGKGLEWVSRISSSGSYTYYADSVKGRFTISRDNSKNTLYLQMNSLRAEDTAVYYCAKEGTSKYRGWMDVWGQGTLVTVSS
VL: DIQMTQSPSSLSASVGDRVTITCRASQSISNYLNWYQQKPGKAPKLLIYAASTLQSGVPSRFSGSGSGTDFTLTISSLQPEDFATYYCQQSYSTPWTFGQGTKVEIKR
binding result (B2M): no binding | EC50 (nM), ADCC reporter assay on SKOV-3/HLA-G cells [1]: 0.17 nM | fold HLA-G binding activity against the positive control antibody [3]: ≥ 3 fold

B13: 2F1_LS#17 (antibody, human IgG1, kappa, V domains shown)
VH: EVQLVESGGGLVQPGGSLRLSCAASGFTFSSYAMSWVRQAPGKGLEWVSRISGSGGYIYYADSVKGRFTISRDNSKNTLYLQMNSLRAEDTAVYYCAKEGTSSYRGWMDVWGQGTLVTVSS
VL: DIQMTQSPSSLSASVGDRVTITCRASQSISNYLNWYQQKPGKAPKLLIYAASRLQSDVPSRFSGSGSGTDFTLTISSLQPEDFATYYCQQSYSTPWTFGQGTKVEIKR
binding result (B2M): no binding | Kd [2]: 0.689 nM | koff [2]: 0.000138 s⁻¹

B14: 2F1CDRH3#26 (antibody, human IgG1, kappa, V domains shown)
VH: EVQLVESGGGLVQPGGSLRLSCAASGFTFSSYAMSWVRQAPGKGLEWVSRISGSGSYTYYADSVKGRFTISRDNSKNTLYLQMNSLRAEDTAVYYCAKEGASSYRGWMDVWGQGTLVTVSS
VL: DIQMTQSPSSLSASVGDRVTITCRASQSISNYLNWYQQKPGKAPKLLIYATSRLQSGVPSRFSGSGSGTDFTLTISSLQPEDFATYYCQQSHSTPWTFGQGTKVEIKR
binding result (B2M): no binding | EC50 (nM), ADCC reporter assay on SKOV-3/HLA-G cells [1]: 0.1 nM | fold HLA-G binding activity against the positive control antibody [3]: ≥ 3 fold

B15: 2F1 (antibody, human IgG1, kappa, V domains shown)
VH: EVQLVESGGGLVQPGGSLRLSCAASGFTFSSYAMSWVRQAPGKGLEWVSRISGSGGYIYYADSVKGRFTISRDNSKNTLYLQMNSLRAEDTAVYYCAKEGTSSYRGWMDVWGQGTLVTVSS
VL: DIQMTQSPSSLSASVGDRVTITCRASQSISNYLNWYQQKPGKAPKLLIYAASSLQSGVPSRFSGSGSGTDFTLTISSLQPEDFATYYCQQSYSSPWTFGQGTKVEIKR
notes: produced in Expi293F cells
binding result (B2M): no binding | Kd [2]: 0.523 nM | koff [2]: 0.00013 s⁻¹

B16: 2F1CDRH3#17 (antibody, human IgG1, kappa, V domains shown)
VH: EVQLVESGGGLVQPGGSLRLSCAASGFTFSDYAMSWVRQAPGKGLEWVSRISGTGSYKYYADSVKGRFTISRDNSKNTLYLQMNSLRAEDTAVYYCAKEGTSTYRGWMDVWGQGTLVTVSS
VL: DIQMTQSPSSLSASVGDRVTITCRASQSISNYLNWYQQKPGKAPKLLIYATSRLQSGVPSRFSGSGSGTDFTLTISSLQPEDFATYYCQQSYTTPWTFGQGTKVEIKR
binding result (B2M): no binding | EC50 (nM), ADCC reporter assay on SKOV-3/HLA-G cells [1]: 0.07 nM | fold HLA-G binding activity against the positive control antibody [3]: ≥ 3 fold

B17: 2F1_LS#39 (antibody, human IgG1, kappa, V domains shown)
VH: EVQLVESGGGLVQPGGSLRLSCAASGFTFSSYAMSWVRQAPGKGLEWVSRISGSGGYIYYADSVKGRFTISRDNSKNTLYLQMNSLRAEDTAVYYCAKEGTSSYRGWMDVWGQGTLVTVSS
VL: DIQMTQSPSSLSASVGDRVTITCRASQSISRYLNWYQQKPGKAPKLLIYATSNLHSGVPSRFSGSGSGTDFTLTISSLQPEDFATYYCQQSYTSPWTFGQGTKVEIKR
binding result (B2M): no binding | Kd [2]: 0.567 nM | koff [2]: 0.000106 s⁻¹

B18: 2F1HS6LS#46 (antibody, human IgG1, kappa, V domains shown)
VH: EVQLVESGGGLVQPGGSLRLSCAASGFTFSDYAMSWVRQAPGKGLEWVSRISQSGSYTYYADSVKGRFTISRDNSKNTLYLQMNSLRAEDTAVYYCAKEGTSSYRGWMDVWGQGTLVTVSS
VL: DIQMTQSPSSLSASVGDRVTITCRASQSISNWLNWYQQKPGKAPKLLIYATSRLQSGVPSRFSGSGSGTDFTLTISSLQPEDFATYYCQQSYSTPWTFGQGTKVEIKR
binding result (B2M): no binding | EC50 (nM), ADCC reporter assay on SKOV-3/HLA-G cells [1]: 0.15 nM | fold HLA-G binding activity against the positive control antibody [3]: ≥ 3 fold

B19: T22A4 (antibody, human IgG1, kappa, V domains shown)
VH: EVQLVESGGNWVQPGGSLRLSCAASGFSFRSYAMSWVRQAPGKGLEWVSSISGSGNSELYAGSVKGRFTISRDNSKNTLSLQLHSLRAEDTAMYYCAKFSAAVGFLPDYFDSWGQGTLVTVSS
VL: ELTLTQSPSSLSASVGDRVTITCQASHDISKYLNWYQQKSGKAPKLLIYDASNLETGVPSRFSGSGSGTDFTLTISSLQPEDFATYYCQQSYRTPLTFGGGTKLEIKR
binding result (B2M): no binding

B20: T23D5 (antibody, human IgG1, kappa, V domains shown)
VH: QVQLQESGPGLVKPSETLSLTCTVSGGSIDRSSHYWGWIRQPPGKGLEWLGSIYYSGITYYNPSLKSRVTISVDTSRNQFSLTLSSVTAADTAVYYCARHGSYDSWAGRYKWDRFDPWGQGTPVTVSS
VL: ELQMTQSPSSLSASVGDRVTITCQASHDISKYLNWYQQKSGKAPKLLIYDASNLETGVPSRFSGSGSGTDFTLTISSLQPEDFATYYCQQSYSTPLTFGGGTKVEIKR
binding result (B2M): no binding
